Common to all, as to conditions: protein: recombinant; tags: His, GST (fusion); chain copies: 2; label: IR-800; blunt
Data set [1] addresses T1, His-GST-Zta (DNA binding and dimerization region) (Epstein-Barr virus, UniProt P03206 168-245). The data set can be described thus: EMSA; CpG methylation; binding increased vs unmethylated ZRE1 (P<=0.01).
Data set [2] deals with T1, His-GST-Zta (DNA binding and …). The data set can be described thus: EMSA.
For data set [3] the target is unchanged. The data set can be described thus: EMSA; highest binding of the five ZREs. A general note: In EMSA bound probe runs differently from free probe, usually more slowly.

T1 sequence (P03206 168-245): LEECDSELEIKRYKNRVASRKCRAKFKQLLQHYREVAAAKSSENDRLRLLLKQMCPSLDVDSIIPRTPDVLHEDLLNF

B1: BNLF2a ZRE1me (CpG-methylated) (dsDNA)
DNA 1: ACACCTGTCCTCGCTCATCTTTCCACA
DNA 2: TGTGGAAAGATGAGCGAGGACAGGTGT
modifications: 5-methyl-C (printed meC) at C12 of strand 1 and C15 of strand 2
Consider B1, for which, in data set [1], the binding result is on record as “binds”.

B2: BNLF2a ZRE5 (dsDNA)
DNA 1: TAAGCTACTATGACTAACCTTTCTTTA
DNA 2: TAAAGAAAGGTTAGTCATAGTAGCTTA
In the case of B2, the binding result in data set [2] is recorded as “binds”.

B3: BNLF2a ZRE1 (dsDNA)
DNA 1: ACACCTGTCCTCGCTCATCTTTCCACA
DNA 2: TGTGGAAAGATGAGCGAGGACAGGTGT
B3: in data set [2], the binding result is recorded as “binds”.

B4: BNLF2a ZRE2 (dsDNA)
DNA 1: CACCTGTTGTTGACACATTCTTTGCGC
DNA 2: GCGCAAAGAATGTGTCAACAACAGGTG
Turning to B4, the binding result in data set [3] was “binds”.

B5: BNLF2a ZRE3 (dsDNA)
DNA 1: CTTTCCATCTTGTGCCAATACACATTT
DNA 2: AAATGTGTATTGGCACAAGATGGAAAG
B5: the binding result in data set [2] is “binds”.

B6: BNLF2a ZRE4 (dsDNA)
DNA 1: TCACCTTAACTGGCACACACTCCCTTA
DNA 2: TAAGGGAGTGTGTGCCAGTTAAGGTGA
Take B6: the binding result in data set [2] is listed as “binds”.

The values are drawn from paper PMC6096924, “Mechanism of activation of the BNLF2a immune evasion gene of Epstein-Barr virus by Zta”.
